The data set is described as follows: label from the status in PepcDB records.

Protein production data for 16 sequences are collected here from a protein production outcome set (Wang et al. 2014).

As to “MTNSGIILVASAALFWGLSGGIAGILINDDWNAVLVSFCRGAVGLIFVLMWLVLRPRNSGFTNGKLWLWSIIAGFGVSGNFAFYFFSISESSVAVAATLMYCAPIFVYLISFAIKIERPTLSKCAAILLVMAGVVLLTRVYQIDSSGITPIGVIAGLLSGMSLALFIFGFKYAARQGSPQAVLAIAFSTLTLALGTLIDIEEAGRVVNSADWPLFAILGVLGGGASFILYIIGLRRTLPALASIVATIEPVTAALFGVIILGEVLAYTQVLGMLIILATVTALGVYSSKQ”, the protein production result is on record as “failed”. The result for “MTNSKQKLVLASGSPRRLELLHQIGIEPARLMPMDIDETPVKLEHPRTLCRRLSQQKAEAAQAALKSEQAWKDAYVLGSDTVVAVGRRIVGKAEYTEEASAALHLLSGRSHWVYTGICLVTPDGKIRQKVAETKVRFKRLSTREIDAYIASGQWRGKAGAYGIQGIAGAFVQKLTGSYTNVVGLPLYETMSLLSGEGFEVTSGWLEG” reads “failed”.

On to “MTNSNNRQSEYPVDPLFLDRWSPRAFDGSPMPKEHLLTILDAAHWAPSASNHQPWRFVYAHKDSEDWPLFVELLMEGNQKWAKNASVLLFVISRDHTISHEGEKKPSATHSFDAGAAWFSLAMQAHLLGYHAHGMGGIFKDRIVEKLDIPDGFKVEAGVAIGTLTDKSILPDDLAEREVPSKRVPLADVAFEGRFTGKAD”, for which the protein production entry is “not failed”. For “MTNTIKKISTAQTYLNNNEIEKIIEVSKSLDLMASFYEADVFIDVLSKFDDEAIVVAHGRPKEKSMYCENVIGKKALIENEPGVIKCLKTGERVRDIKALTQEYKLVKQNIQPITLDDKVLAVLIVEKDISSEVKNEFNASEDEENKNLHQFIKLIGNNDFLVDNLNSAILIFDKNGKLKIKNRIATEIYKNLGFGYDIQDMHYNDLDIETNTFENILMDENYDETNEVSIGNMFFKIKTIYIKDDEFKVCKIVQDISDLKRKEEELVLKTVAIREAHHRVKNNLHTVISIIKKQSRLSQNDEVKQCLDNIINRVFAILSTHYLLSKEVDNNISIREGINLLVSNIQGGYLFSKDIDIRITGEDFKISGEKATAILLVINEILQNCYDHAFSDREHGTIQILINKDNDYRNIAIIDDGIGFDSNNINKNSLGTYIIDSYITQMLKGNIERKSSENGTEVLITIPTQINI” the value was “failed”. Take “MTNVLWLQGGACSGNTMSFLNAEEPTVCDLIADFGIKVLWHPSLGLELGDNVQTLLWDCILGKIPLDILVFEGTVVNAPNGTGEWNRFADRPMKDWLNDLAQAASFVVAVGDCATWGGIPAMEPNPSESQGLQFLKRKEGGFLGKDFRAKSGLPVINIPGCPSHPDWITQILVAIATGRIGDIALDELNRPQTFFNTFTQTGCTRNVHFAYKATTAEFGQRKGCLFYDLGCRGPMTHSSCNRILWNRVSSKTRAGMPCLGCTEPEFPFFDLKPGTVFKTQTIMGVPKELPPGVSNKNYAVLTMVAKDTAPKWAEEDFFTV”: the protein production entry is “failed”. For “MTNWKPLVSVITPSYNARDYIEDTVHSVLDQSHPHWEMIIVDDCSTDGTRDILQQYEKIDERIHVVYLEENSGAAVARNKALERAQGRYVAFLDSDDKWKKDKLEKQLEFMMERSCAFSFTGYSLMAQDGTPLDKFIHAPESLTYDDALKNTIIGCLTVMIDREQTGQIQMPNIRTRQDLATWLSLLKKGFTAYGMNECLAEYRLVNNSISSNKWKAAKKTWFVYREIERLHFMKATWCFVQYAKNAVKKRLLEHHHHHH” the value was “not failed”; for “MTPFPHASLFTPHSSRITPSLHLPVRLGNATFDTRHRTALTMSADRLEQLKTFHEEDPEDPFTRYALAQEHLKHDNASRALALFEELVETDPDYVGTYYHLGKLYERLDRTDDAIDTYAQGIEVAREEGTQKDLSELQDAKLKAEGVGFD”, “failed”; for “MTPFTQSQRIKALFWLSLFHLLVIISSNYLVQLPITIFGFHTTWGAFSFPFIFLATDLTVRIFGAPLARRIIFAVMIPALLVSYVVSSLFYMGAWQGFAALANFNLFVARIAAASFMAYALGQILDVHVFNRLRQNRRWWLAPTASTLFGNISDTLAFFFIAFWRSPDAFMAGHWMEIALVDYCFKVLISIIFFLPMYGVLLNMLLKKLADKSEISPLPAS”, “not failed”. For “MTPHPRLSIGLPVYNGEEYLAESLDALLGQTYENFELVISDNASTDGTRDICRRYAAQDSRIRYIRLPRNIGAAPNHNYVFTECRGELFKWASHDDLYARDLLRSCVAALDERPEVVLAHAGQAVIDGDGKVKVPYEYGLATDSPRAPERFRSLLFEPGGDDFYGVMRSAMLRRVKPHDSYHHADRTFVAEITLHGPFHQVPELLYFRRDHPTRAERANPSKRSRCVNLDPRRAGPLHPTPRLLAEYVWGFASAIGRAPLSSADRRACHRHLAAWLTSRVRPGVGERVEDRAPVDPDRLTVSVDDLVAGREGRQALEHHHHHH” the value was “failed”. On to “MTPIAQRDGQAIQLVGFDGDDTLWKSEDYYRTAEADFEAILSGYLDLGDSRMQQHLLAVERRNLKIFGYGAKGMTLSMIETAIELTEARIEARDIQRIVEIGRATLQHPVEVIAGVREAVAAIAADYAVVLITKGDLFHQEQKIEQSGLSDLFPRIEVVSEKDPQTYARVLSEFDLPAERFVMIGNSLRSDVEPVLAIGGWGIYTPYAVTWAHEQDHGVAADEPRLREVPDPSGWPAAVRALDAQAGRQQ”, for which the protein production result is recorded as “not failed”. The result for “MTPIQDHPLRFALANELHARPFPISRAPCTVAYLAVKQPDAAVGRDRKADRAHLIDLLDRHGAPHPQPGATHYAGQIGRHWLKWESHTEFVTYTAFATGVSDRPFNPADFEVFPPDWLAAAPGQRVTSALLRVEEQLPEADIVAALADWFVPESLAVAHVLDRAAVAAGDFRIDPAGHMRFAVFVAPDTGERRIGRIIQRLCEIETYKAMSMLGFARVKALGPKLGELDSGLTGLMVKMTDGGHPAEDLLPQLLSTSAELETMAARSEFRLGATGAYEAIVNQRIASLREERFGGRQTFADFMLRRYEPAMRTVKSTERRLKRLSDRAIRAGDLLRTRVDVERSAQNQALLESMDRRADLALRLQHTVEGLSVVAVSYYAVSLVSAFLLPLSEWYGVDKKALIALVTLPVVGLVWLGIRRIRKKLH” reads “failed”; that for “MTPPIAADYTAQAVSTDTIGYLHSTESGAGVDGPGMRFVFFVSGCQFRCLYCHNPDTWKLHNGRQVSVEQALSEVAPYARFLKFAGGVTISGGEPLMQHEFVGELFHEIKQRFGLHTALDTQGFLHERVSDAWFDDVDLVMLDIKHSDPEKYQALTGQPLQPTLDFALRLKRLRKKMWIRYVLVPGLTDGDADIEKLADFAASLGDVVERVEVLPFHQLGKDKWAQLGMEYQLNDTPIPTAEQAAHARALFASRGLKVTLEHHHHHH”, “not failed”; that for “MTPQFRALLVHLFTATGAVFAMLAMLAAVDAKWDLMFLWLVVAFFVDGLDGPMARRYHVKTYAPEFDGVLLDLIIDYLTYVFIPAFALFKSGLMDGWTGWLAIIIITFASAMYFADTRMKTKDNSFSGFPGCWNMVVLVIFALEPNFWVSLVLVTVLAVSMFLPLKFVHPVRTERWRAITLPMALAWTFFAGWAAWVGFHPESWAHWGLVVTSLYLIFAGIAQMVIPEKDTASPF”, “failed”. Regarding “MTPSKTTLVERCYKYIMSNEKNWSPYTVINRKSWVKNYIEPFFKDTKLIDINPVLIQTFINTTFNNCTFSSSKIRYRFISSVLKEAYRLREINENPCDFVKLPLEHHHHHH”, the protein production entry is “failed”. In the case of “MTPVCAWIGSPGAKAQLSFAGRGHSTAKRRRGPAGEPAVPGEALPGARGSLKAHPKPWAAAMWARGCLHHIRVWFSWSQQGSGNGRSGWERLAREARGLWQLWCLPGTPNSSPLQTDM”, the protein production entry is recorded as “failed”. On to “MTPYDIKDPDVRRRRFRPIPVRMLVPNVITLLAICAGLTSIRLSIEGRMSLAVYAIVFAAALDGIDGRIARMIKGQSKFGAELDSLADFVNFGVAPGLMLYFWQLHELGNAGWIAAMVFAISGGLRLARFNATMDDPNKPAFAANFFTGVPAPAGAITVLLPIYVAFLDLGRAPAAVTAAYTLLIAFLMVSRLPVFSGKTKRMRVPPELVLPAFVAVIVFIAILIAYPWHVLSIGTVLYLLALPLGYKSYRDQARAMDAATPAGGEISSPPSAPTLANLSEPPHDDDRPGRLH”, for which the protein production entry was “failed”.
